Measurements published in US20200165340A1 (XIANGTAN TENGHUA BIOSCIENCE, published 2020).

Target: T1, human PD-L1 expressed at the cell membrane (human, UniProt Q9NZQ7 19-290)
T1 construct: whole, on cells; also called programmed death-ligand 1; cellular PD-L1 protein
Test: flow cytometry (FACS) titration on 293T cells stably transfected with human PD-L1, anti-mouse IgG PE detection

T1 sequence (Q9NZQ7 19-290): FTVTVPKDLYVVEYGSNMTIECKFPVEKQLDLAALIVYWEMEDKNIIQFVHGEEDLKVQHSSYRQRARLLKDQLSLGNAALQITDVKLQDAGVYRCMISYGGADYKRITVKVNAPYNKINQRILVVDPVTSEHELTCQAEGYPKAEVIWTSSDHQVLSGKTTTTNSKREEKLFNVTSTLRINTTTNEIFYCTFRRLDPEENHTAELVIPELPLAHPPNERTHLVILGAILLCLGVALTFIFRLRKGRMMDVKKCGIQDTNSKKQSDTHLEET

EC50: 0.3 nM
B1: anti-PD-L1 mouse monoclonal antibody Q106 (antibody, V domains shown)
VH: DVQLQESGPGLVKPSQSLSLTCSVTGYSITSDYAWNWIRQFPGDTLEWMGYINYSGSSTYNPSLISRLSITRDTSKNQFFLQLNSVTSEDTATYYCARGPDWDWYFDYWGQGTTLTVSS
VL: DIVLTQSPATLSVTPGDSVSLSCRASQSISNNLHWYQQKSHESPRLLIKYASQSISGIPSRFSGSGSGTDFTLSINGVETEDFGMYFCQQTNSWPTFGGGTKLEIK
notes: also called PD-L1 antibody Q106
